# In patent US20030211537A1:
# Where a chain is given by its changes, count along the chain named. Non-standard residues stand in square brackets, D forms with d. No end group written: not given here.
# T1: mouse delta opioid receptor (mORD1) (mouse), P32300
# T1 chain: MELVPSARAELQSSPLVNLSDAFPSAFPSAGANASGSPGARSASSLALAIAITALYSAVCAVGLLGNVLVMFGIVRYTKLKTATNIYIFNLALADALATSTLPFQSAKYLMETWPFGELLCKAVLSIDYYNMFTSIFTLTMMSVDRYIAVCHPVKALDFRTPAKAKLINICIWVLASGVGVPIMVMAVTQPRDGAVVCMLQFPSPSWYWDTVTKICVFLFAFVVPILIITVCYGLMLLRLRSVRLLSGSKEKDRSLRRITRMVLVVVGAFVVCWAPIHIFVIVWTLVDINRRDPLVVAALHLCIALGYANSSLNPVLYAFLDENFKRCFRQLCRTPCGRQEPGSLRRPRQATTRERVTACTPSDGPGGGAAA
# T2: rat µ opioid receptor (rat), P33535
# T2 chain: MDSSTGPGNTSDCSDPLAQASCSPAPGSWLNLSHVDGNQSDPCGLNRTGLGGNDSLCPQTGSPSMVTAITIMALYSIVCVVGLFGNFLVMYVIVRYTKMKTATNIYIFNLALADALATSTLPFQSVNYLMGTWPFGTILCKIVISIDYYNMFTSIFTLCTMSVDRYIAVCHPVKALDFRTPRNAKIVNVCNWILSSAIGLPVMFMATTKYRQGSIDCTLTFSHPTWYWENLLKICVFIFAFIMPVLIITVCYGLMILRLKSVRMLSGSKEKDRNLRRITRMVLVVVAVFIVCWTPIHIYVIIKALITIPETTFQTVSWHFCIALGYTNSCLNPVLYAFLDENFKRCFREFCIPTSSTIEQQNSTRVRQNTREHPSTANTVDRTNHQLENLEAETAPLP
# T3: D128N mutant mouse delta opioid receptor (mouse), P32300
# T3 chain: T1 chain with D128N
# T4: κ1-78/δ70-372 chimeric opioid receptor (mouse)
# T4 chain: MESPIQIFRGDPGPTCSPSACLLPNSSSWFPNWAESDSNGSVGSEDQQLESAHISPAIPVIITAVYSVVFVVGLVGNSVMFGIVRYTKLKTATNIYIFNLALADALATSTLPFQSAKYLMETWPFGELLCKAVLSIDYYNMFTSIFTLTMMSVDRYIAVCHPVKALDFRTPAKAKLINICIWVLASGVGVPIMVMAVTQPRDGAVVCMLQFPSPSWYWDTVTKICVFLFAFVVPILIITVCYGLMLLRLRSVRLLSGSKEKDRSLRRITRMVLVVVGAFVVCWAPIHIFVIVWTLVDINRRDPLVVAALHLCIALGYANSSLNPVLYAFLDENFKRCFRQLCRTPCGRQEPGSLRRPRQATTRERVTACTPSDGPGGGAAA
# T5: H278N mutant mouse delta opioid receptor (mouse), P32300
# T5 chain: T1 chain with H278N
# Tests used:
# [1] = target: T1, mouse delta opioid receptor (mORD1) …; assay: radioligand binding, COS-7 membranes
# [2] = target: T2, rat µ opioid receptor (rat), P33535; assay: saturation binding, COS-7 membranes
# [3] = target: T2, rat µ opioid receptor (rat), P33535; assay: competition vs [3H]DAMGO, COS-7 membranes
# [4] = target: cloned human µ opioid receptor (human), P35372; assay: saturation binding, Scatchard analysis, COS-7 membranes
# Chain of cloned human µ opioid receptor (human), P35372 (P35372 whole entry): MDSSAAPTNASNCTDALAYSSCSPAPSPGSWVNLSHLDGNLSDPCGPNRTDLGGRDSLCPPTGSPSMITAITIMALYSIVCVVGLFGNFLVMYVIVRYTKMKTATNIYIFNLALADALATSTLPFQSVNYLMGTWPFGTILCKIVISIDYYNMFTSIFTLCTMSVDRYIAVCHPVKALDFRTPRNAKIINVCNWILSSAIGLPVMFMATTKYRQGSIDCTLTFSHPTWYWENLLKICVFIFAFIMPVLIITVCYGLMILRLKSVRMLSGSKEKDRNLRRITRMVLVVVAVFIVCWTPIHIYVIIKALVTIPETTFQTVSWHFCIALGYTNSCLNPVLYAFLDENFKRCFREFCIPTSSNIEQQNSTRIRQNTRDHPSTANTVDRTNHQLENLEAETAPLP
# [5] = target: T1, mouse delta opioid receptor (mORD1) …; assay: competition vs [3H]naltrindole, COS-1 membranes
# [6] = target: T1, mouse delta opioid receptor (mORD1) …; assay: competition vs [3H]naltrindole, CHO-DG44 membranes
# [7] = target: T3, D128N mutant mouse delta opioid …; assay: cell-based or functional assay
# [8] = target: T1, mouse delta opioid receptor (mORD1) …; assay: cell-based or functional assay
# [9] = target: T4, κ1-78/δ70-372 chimeric opioid receptor …; assay: competition vs [3H]DPDPE, COS-7 membranes
# [10] = target: T5, H278N mutant mouse delta opioid …; assay: competition vs 3H-naltrindole, COS-7 membranes
binder,measurement,setting,value
"YCGFC (modifications not checked) [[D-Pen2, D-Pen5]enkephalin (DPDPE)]",average binding (fmol/mg protein),[1],1990
"YAGFG (modifications not checked) [[D-Ala2,MePhe4,Gly-ol5]enkephalin (DAMGO)]",Kd,[2],0.57 nM
same,Ki,[3],2 nM
same,Kd,[4],1 nM
YAGFL (modifications not checked) [DADL],Ki,[3],16 nM
same,IC50,[5],20 nM
same,Ki,[6],0.74 nM
"Y[dS]GFLT [[D-Ser2, Leu5] enkephalin-Thr6 (DSLET)]",EC50 to inhibit forskolin-stimulated cAMP accumulation,[7],30 nM
same,inhibition of forskolin-stimulated cAMP formation,[8],70%
same,IC50,[9],2 nM
same,Ki,[10],0.5 nM
